Patent publication US20240270846A1 (published 2024)

These binders were tested against T1, CD3 epsilon homodimer protein (UniProt P07766 23-126) (assay: SPR Biacore T200, CD3 epsilon homodimer immobilized; vs unaltered GLS3000;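 note: antibody variants flowed as analyte over CD3 epsilon homodimer amine-coupled to a CM4 chip, at 25 °C in HBS-EP+ running buffer, fitted with Biacore T200 Evaluation Software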).
T1 construct: construct not described; homodimer as printed; also called CD3 (CD3 epsilon)
T1 sequence (P07766 23-126): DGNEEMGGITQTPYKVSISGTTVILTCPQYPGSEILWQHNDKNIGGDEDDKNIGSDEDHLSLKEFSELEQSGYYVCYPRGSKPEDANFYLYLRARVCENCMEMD

Row | Binder | KD ratio to GLS3000 (Affinity up)
1 | GLS3000 R24Y (Kabat) L chain altered form, one-arm antibody with CE115HA000 (antibody, human IgG1, kappa, L234A L235A, N297A, name in Kabat numbering, one-arm antibody) heavy: QVQLVESGGGVVQPGRSLRLSCAASGFTFSNAWMHWVRQAPGKGLEWVAQIKAKSNNYATYYAESVKGRFTISRDDSKNSLYLQMNSLKTEDTAVYYCRYVHYGAYYGVDAWGQGTTVTVSSASTKGPSVFPLAPSSKSTSGGTAALGCLVKDYFPEPVTVSWNSGALTSGVHTFPAVLQSSGLYSLSSVVTVPSSSLGTQTYICNVNHKPSNTKVDKKVEPKSCDKTHTCPPCPAPEAAGGPSVFLFPPKPKDTLMISRTPEVTCVVVDVSHEDPEVKFNWYVDGVEVHNAKTKPREEQYASTYRVVSVLTVLHQDWLNGKEYKCKVSNKALPAPIEKTISKAKGQPREPQVYTLPPSRCELTKNQVSLSCAVKGFYPSDIAVEWESNGQPENNYKTTPPVLDSDGSFFLVSKLTVDKSRWQQGNVFSCSVMHEALHNHYTQKSLSLSPDYKDDDDK EPKSSDKTHTCPPCPAPELLGGPSVFLFPPKPKDTLMISRTPEVTCVVVDVSHEDPEVKFNWYVDGVEVHNAKTKPREEQYNSTYRVVSVLTVLHQDWLNGKEYKCKVSNKALPAPIEKTISKAKGQPREPQVCTLPPSRDELTKNQVSLWCLVKGFYPSDIAVEWESNGQPENNYKTTPPVLDSDGSFFLYSKLTVDKSRWQQGNVFSCSVMHEALHNRYTQKSLSLSP light: DIVMTQSPLSLPVTPGEPASISCYSSQSLVHSNRNTYLHWYQQKPGQAPRLLIYKVSNRFSGVPDRFSGSGSGTDFTLKISRVEAEDVGVYYCGQGTQVPYTFGQGTKLEIKRTVAAPSVFIFPPSDEQLKSGTASVVCLLNNFYPREAKVQWKVDNALQSGNSQESVTEQDSKDSTYSLSSTLTLSKADYEKHKVYACEVTHQGLSSPVTKSFNRGEC | 0.94
2 | GLS3000 R29A (Kabat) L chain altered form, one-arm antibody with CE115HA000 (antibody, human IgG1, kappa, L234A L235A, N297A, name in Kabat numbering, one-arm antibody) heavy: QVQLVESGGGVVQPGRSLRLSCAASGFTFSNAWMHWVRQAPGKGLEWVAQIKAKSNNYATYYAESVKGRFTISRDDSKNSLYLQMNSLKTEDTAVYYCRYVHYGAYYGVDAWGQGTTVTVSSASTKGPSVFPLAPSSKSTSGGTAALGCLVKDYFPEPVTVSWNSGALTSGVHTFPAVLQSSGLYSLSSVVTVPSSSLGTQTYICNVNHKPSNTKVDKKVEPKSCDKTHTCPPCPAPEAAGGPSVFLFPPKPKDTLMISRTPEVTCVVVDVSHEDPEVKFNWYVDGVEVHNAKTKPREEQYASTYRVVSVLTVLHQDWLNGKEYKCKVSNKALPAPIEKTISKAKGQPREPQVYTLPPSRCELTKNQVSLSCAVKGFYPSDIAVEWESNGQPENNYKTTPPVLDSDGSFFLVSKLTVDKSRWQQGNVFSCSVMHEALHNHYTQKSLSLSPDYKDDDDK EPKSSDKTHTCPPCPAPELLGGPSVFLFPPKPKDTLMISRTPEVTCVVVDVSHEDPEVKFNWYVDGVEVHNAKTKPREEQYNSTYRVVSVLTVLHQDWLNGKEYKCKVSNKALPAPIEKTISKAKGQPREPQVCTLPPSRDELTKNQVSLWCLVKGFYPSDIAVEWESNGQPENNYKTTPPVLDSDGSFFLYSKLTVDKSRWQQGNVFSCSVMHEALHNRYTQKSLSLSP light: DIVMTQSPLSLPVTPGEPASISCRSSQSLVHSNANTYLHWYQQKPGQAPRLLIYKVSNRFSGVPDRFSGSGSGTDFTLKISRVEAEDVGVYYCGQGTQVPYTFGQGTKLEIKRTVAAPSVFIFPPSDEQLKSGTASVVCLLNNFYPREAKVQWKVDNALQSGNSQESVTEQDSKDSTYSLSSTLTLSKADYEKHKVYACEVTHQGLSSPVTKSFNRGEC | 1.15
3 | GLS3000 R29G (Kabat) L chain altered form, one-arm antibody with CE115HA000 (antibody, human IgG1, kappa, L234A L235A, N297A, name in Kabat numbering, one-arm antibody) heavy: QVQLVESGGGVVQPGRSLRLSCAASGFTFSNAWMHWVRQAPGKGLEWVAQIKAKSNNYATYYAESVKGRFTISRDDSKNSLYLQMNSLKTEDTAVYYCRYVHYGAYYGVDAWGQGTTVTVSSASTKGPSVFPLAPSSKSTSGGTAALGCLVKDYFPEPVTVSWNSGALTSGVHTFPAVLQSSGLYSLSSVVTVPSSSLGTQTYICNVNHKPSNTKVDKKVEPKSCDKTHTCPPCPAPEAAGGPSVFLFPPKPKDTLMISRTPEVTCVVVDVSHEDPEVKFNWYVDGVEVHNAKTKPREEQYASTYRVVSVLTVLHQDWLNGKEYKCKVSNKALPAPIEKTISKAKGQPREPQVYTLPPSRCELTKNQVSLSCAVKGFYPSDIAVEWESNGQPENNYKTTPPVLDSDGSFFLVSKLTVDKSRWQQGNVFSCSVMHEALHNHYTQKSLSLSPDYKDDDDK EPKSSDKTHTCPPCPAPELLGGPSVFLFPPKPKDTLMISRTPEVTCVVVDVSHEDPEVKFNWYVDGVEVHNAKTKPREEQYNSTYRVVSVLTVLHQDWLNGKEYKCKVSNKALPAPIEKTISKAKGQPREPQVCTLPPSRDELTKNQVSLWCLVKGFYPSDIAVEWESNGQPENNYKTTPPVLDSDGSFFLYSKLTVDKSRWQQGNVFSCSVMHEALHNRYTQKSLSLSP light: DIVMTQSPLSLPVTPGEPASISCRSSQSLVHSNGNTYLHWYQQKPGQAPRLLIYKVSNRFSGVPDRFSGSGSGTDFTLKISRVEAEDVGVYYCGQGTQVPYTFGQGTKLEIKRTVAAPSVFIFPPSDEQLKSGTASVVCLLNNFYPREAKVQWKVDNALQSGNSQESVTEQDSKDSTYSLSSTLTLSKADYEKHKVYACEVTHQGLSSPVTKSFNRGEC | 0.62

Continued, values first:

Row | KD ratio to GLS3000 (Affinity up) | Binder
4 | 0.97 | GLS3000 R24S (Kabat) L chain altered form, one-arm antibody with CE115HA000 (antibody, human IgG1, kappa, L234A L235A, N297A, name in Kabat numbering, one-arm antibody) heavy: QVQLVESGGGVVQPGRSLRLSCAASGFTFSNAWMHWVRQAPGKGLEWVAQIKAKSNNYATYYAESVKGRFTISRDDSKNSLYLQMNSLKTEDTAVYYCRYVHYGAYYGVDAWGQGTTVTVSSASTKGPSVFPLAPSSKSTSGGTAALGCLVKDYFPEPVTVSWNSGALTSGVHTFPAVLQSSGLYSLSSVVTVPSSSLGTQTYICNVNHKPSNTKVDKKVEPKSCDKTHTCPPCPAPEAAGGPSVFLFPPKPKDTLMISRTPEVTCVVVDVSHEDPEVKFNWYVDGVEVHNAKTKPREEQYASTYRVVSVLTVLHQDWLNGKEYKCKVSNKALPAPIEKTISKAKGQPREPQVYTLPPSRCELTKNQVSLSCAVKGFYPSDIAVEWESNGQPENNYKTTPPVLDSDGSFFLVSKLTVDKSRWQQGNVFSCSVMHEALHNHYTQKSLSLSPDYKDDDDK EPKSSDKTHTCPPCPAPELLGGPSVFLFPPKPKDTLMISRTPEVTCVVVDVSHEDPEVKFNWYVDGVEVHNAKTKPREEQYNSTYRVVSVLTVLHQDWLNGKEYKCKVSNKALPAPIEKTISKAKGQPREPQVCTLPPSRDELTKNQVSLWCLVKGFYPSDIAVEWESNGQPENNYKTTPPVLDSDGSFFLYSKLTVDKSRWQQGNVFSCSVMHEALHNRYTQKSLSLSP light: DIVMTQSPLSLPVTPGEPASISCSSSQSLVHSNRNTYLHWYQQKPGQAPRLLIYKVSNRFSGVPDRFSGSGSGTDFTLKISRVEAEDVGVYYCGQGTQVPYTFGQGTKLEIKRTVAAPSVFIFPPSDEQLKSGTASVVCLLNNFYPREAKVQWKVDNALQSGNSQESVTEQDSKDSTYSLSSTLTLSKADYEKHKVYACEVTHQGLSSPVTKSFNRGEC
5 | 1.58 | GLS3000 R29D (Kabat) L chain altered form, one-arm antibody with CE115HA000 (antibody, human IgG1, kappa, L234A L235A, N297A, name in Kabat numbering, one-arm antibody) heavy: QVQLVESGGGVVQPGRSLRLSCAASGFTFSNAWMHWVRQAPGKGLEWVAQIKAKSNNYATYYAESVKGRFTISRDDSKNSLYLQMNSLKTEDTAVYYCRYVHYGAYYGVDAWGQGTTVTVSSASTKGPSVFPLAPSSKSTSGGTAALGCLVKDYFPEPVTVSWNSGALTSGVHTFPAVLQSSGLYSLSSVVTVPSSSLGTQTYICNVNHKPSNTKVDKKVEPKSCDKTHTCPPCPAPEAAGGPSVFLFPPKPKDTLMISRTPEVTCVVVDVSHEDPEVKFNWYVDGVEVHNAKTKPREEQYASTYRVVSVLTVLHQDWLNGKEYKCKVSNKALPAPIEKTISKAKGQPREPQVYTLPPSRCELTKNQVSLSCAVKGFYPSDIAVEWESNGQPENNYKTTPPVLDSDGSFFLVSKLTVDKSRWQQGNVFSCSVMHEALHNHYTQKSLSLSPDYKDDDDK EPKSSDKTHTCPPCPAPELLGGPSVFLFPPKPKDTLMISRTPEVTCVVVDVSHEDPEVKFNWYVDGVEVHNAKTKPREEQYNSTYRVVSVLTVLHQDWLNGKEYKCKVSNKALPAPIEKTISKAKGQPREPQVCTLPPSRDELTKNQVSLWCLVKGFYPSDIAVEWESNGQPENNYKTTPPVLDSDGSFFLYSKLTVDKSRWQQGNVFSCSVMHEALHNRYTQKSLSLSP light: DIVMTQSPLSLPVTPGEPASISCRSSQSLVHSNDNTYLHWYQQKPGQAPRLLIYKVSNRFSGVPDRFSGSGSGTDFTLKISRVEAEDVGVYYCGQGTQVPYTFGQGTKLEIKRTVAAPSVFIFPPSDEQLKSGTASVVCLLNNFYPREAKVQWKVDNALQSGNSQESVTEQDSKDSTYSLSSTLTLSKADYEKHKVYACEVTHQGLSSPVTKSFNRGEC
6 | 1.03 | GLS3000 R24T (Kabat) L chain altered form, one-arm antibody with CE115HA000 (antibody, human IgG1, kappa, L234A L235A, N297A, name in Kabat numbering, one-arm antibody) heavy: QVQLVESGGGVVQPGRSLRLSCAASGFTFSNAWMHWVRQAPGKGLEWVAQIKAKSNNYATYYAESVKGRFTISRDDSKNSLYLQMNSLKTEDTAVYYCRYVHYGAYYGVDAWGQGTTVTVSSASTKGPSVFPLAPSSKSTSGGTAALGCLVKDYFPEPVTVSWNSGALTSGVHTFPAVLQSSGLYSLSSVVTVPSSSLGTQTYICNVNHKPSNTKVDKKVEPKSCDKTHTCPPCPAPEAAGGPSVFLFPPKPKDTLMISRTPEVTCVVVDVSHEDPEVKFNWYVDGVEVHNAKTKPREEQYASTYRVVSVLTVLHQDWLNGKEYKCKVSNKALPAPIEKTISKAKGQPREPQVYTLPPSRCELTKNQVSLSCAVKGFYPSDIAVEWESNGQPENNYKTTPPVLDSDGSFFLVSKLTVDKSRWQQGNVFSCSVMHEALHNHYTQKSLSLSPDYKDDDDK EPKSSDKTHTCPPCPAPELLGGPSVFLFPPKPKDTLMISRTPEVTCVVVDVSHEDPEVKFNWYVDGVEVHNAKTKPREEQYNSTYRVVSVLTVLHQDWLNGKEYKCKVSNKALPAPIEKTISKAKGQPREPQVCTLPPSRDELTKNQVSLWCLVKGFYPSDIAVEWESNGQPENNYKTTPPVLDSDGSFFLYSKLTVDKSRWQQGNVFSCSVMHEALHNRYTQKSLSLSP light: DIVMTQSPLSLPVTPGEPASISCTSSQSLVHSNRNTYLHWYQQKPGQAPRLLIYKVSNRFSGVPDRFSGSGSGTDFTLKISRVEAEDVGVYYCGQGTQVPYTFGQGTKLEIKRTVAAPSVFIFPPSDEQLKSGTASVVCLLNNFYPREAKVQWKVDNALQSGNSQESVTEQDSKDSTYSLSSTLTLSKADYEKHKVYACEVTHQGLSSPVTKSFNRGEC
